Laboratory results as given in patent publication US20190135872A1.

Experiments:
[1] = target: 16055 NFL (I559P) parental (HIV-1 16055 (clade C)); assay: ELISA, His-captured trimer
[2] = target: 16055 NFL-CC2 (HIV-1 16055 (clade C)); assay: ELISA, His-captured trimer
[3] = target: 16055 NFL-L555P (HIV-1 16055 (clade C)); assay: ELISA, His-captured trimer
[4] = target: 16055 NFL-Q563P (HIV-1 16055 (clade C)); assay: ELISA, His-captured trimer
[5] = target: 16055 NFL-TD+CC2-D4K_I559P (HIV-1 16055 (clade C)); assay: ELISA, His-captured trimer
[6] = target: 16055 NFL-TD+CC2-D4K_I559P w/rEK (HIV-1 16055 (clade C)); assay: ELISA, His-captured trimer
[7] = target: 16055 NFL-TD+CC2-D4K_L555P (HIV-1 16055 (clade C)); assay: ELISA, His-captured trimer
[8] = target: 16055 NFL-TD+CC2-D4K_L555P w/rEK (HIV-1 16055 (clade C)); assay: ELISA, His-captured trimer
[9] = target: BG505 NFL (I559P) parental (HIV-1 BG505 (clade A)); assay: ELISA, His-captured trimer
[10] = target: BG505 NFL-CC2 (HIV-1 BG505 (clade A)); assay: ELISA, His-captured trimer
[11] = target: BG505 NFL-L555P (HIV-1 BG505 (clade A)); assay: ELISA, His-captured trimer
[12] = target: BG505 NFL-TD+CC2-D4K_I559P (HIV-1 BG505 (clade A)); assay: ELISA, His-captured trimer
[13] = target: BG505 NFL-TD+CC2-D4K_I559P w/rEK (HIV-1 BG505 (clade A)); assay: ELISA, His-captured trimer
[14] = target: BG505 NFL-TD+CC2-D4K_L555P (HIV-1 BG505 (clade A)); assay: ELISA, His-captured trimer
[15] = target: BG505 NFL-TD+CC2-D4K_L555P w/rEK (HIV-1 BG505 (clade A)); assay: ELISA, His-captured trimer
[16] = target: JRFL NFL-CC2 (HIV-1 JRFL (clade B)); assay: ELISA, His-captured trimer
[17] = target: 16055 NFL (I559P) parental (HIV-1 16055 (clade C)); assay: BLI, IgG captured, trimer as analyte
[18] = target: 16055 NFL-CC2 (HIV-1 16055 (clade C)); assay: BLI, IgG captured, trimer as analyte
[19] = target: 16055 NFL-L555P (HIV-1 16055 (clade C)); assay: BLI, IgG captured, trimer as analyte
[20] = target: 16055 NFL-Q562P (HIV-1 16055 (clade C)); assay: BLI, IgG captured, trimer as analyte
[21] = target: 16055 NFL-Q563P (HIV-1 16055 (clade C)); assay: BLI, IgG captured, trimer as analyte
[22] = target: 16055 NFL-TD+CC2-D4K_I559P (HIV-1 16055 (clade C)); assay: BLI, IgG captured, trimer as analyte
[23] = target: 16055 NFL-TD+CC2-D4K_L555P (HIV-1 16055 (clade C)); assay: BLI, IgG captured, trimer as analyte
[24] = target: BG505 NFL (I559P) parental (HIV-1 BG505 (clade A)); assay: BLI, IgG captured, trimer as analyte
[25] = target: BG505 NFL-CC2 (HIV-1 BG505 (clade A)); assay: BLI, IgG captured, trimer as analyte
[26] = target: BG505 NFL-L555P (HIV-1 BG505 (clade A)); assay: BLI, IgG captured, trimer as analyte
[27] = target: BG505 NFL-N554P (HIV-1 BG505 (clade A)); assay: BLI, IgG captured, trimer as analyte
[28] = target: BG505 NFL-Q562P (HIV-1 BG505 (clade A)); assay: BLI, IgG captured, trimer as analyte
[29] = target: BG505 NFL-Q563P (HIV-1 BG505 (clade A)); assay: BLI, IgG captured, trimer as analyte
[30] = target: BG505 NFL-S553P (HIV-1 BG505 (clade A)); assay: BLI, IgG captured, trimer as analyte
[31] = target: BG505 NFL-TD+CC2-D4K_I559P (HIV-1 BG505 (clade A)); assay: BLI, IgG captured, trimer as analyte
[32] = target: BG505 NFL-TD+CC2-D4K_L555P (HIV-1 BG505 (clade A)); assay: BLI, IgG captured, trimer as analyte
[33] = target: +N332 N276Q/N360Q/N463Q (HIV-1 16055 (Indian subtype C)); assay: BLI, trimer on anti-His sensor, Fab analyte
[34] = target: +N332 N276Q/N360Q/N463Q/N301Q (HIV-1 16055 (Indian subtype C)); assay: BLI, trimer on anti-His sensor, Fab analyte
[35] = target: +N332 N301Q (HIV-1 16055 (Indian subtype C)); assay: BLI, trimer on anti-His sensor, Fab analyte
[36] = target: N276Q/N463Q trimer (PT backbone) (HIV-1 16055 (Indian subtype C)); assay: BLI, trimer on anti-His sensor, Fab analyte
[37] = target: +N332 N276Q/N360Q/N463Q/N301Q (HIV-1 16055 (Indian subtype C)); assay: negative-stain EM, 2D classes of trimer-Fab complexes
[38] = target: +N332 PT (HIV-1 16055 (Indian subtype C)); assay: as above
[39] = target: +N332 N276Q/N360Q/N463Q (HIV-1 16055 (Indian subtype C)); assay: BLI (Octet): trimer on anti-His sensor, Fab in solution, 1:1 global fit
[40] = target: +N332 N276Q/N360Q/N463Q/N301Q (HIV-1 16055 (Indian subtype C)); assay: as above
[41] = target: +N332 N301Q (HIV-1 16055 (Indian subtype C)); assay: as above
[42] = target: +N332 PT (HIV-1 16055 (Indian subtype C)); assay: as above
[43] = target: 16055 NFL TD CC (T569G) (HIV-1 16055 (Indian subtype C)); assay: as above
[44] = target: N276Q/N463Q trimer (PT backbone) (HIV-1 16055 (Indian subtype C)); assay: as above

## 2G12 (antibody)
[1]
  EC50: 2.34 µg/mL
[2]
  EC50: 0.056 µg/mL
[3]
  EC50: 0.051 µg/mL
[4]
  EC50: 0.066 µg/mL
[5]
  EC50: 0.043 µg/mL
[6]
  EC50: 0.105 µg/mL
[7]
  EC50: 0.038 µg/mL
[8]
  EC50: 0.11 µg/mL
[9]
  EC50: 0.029 µg/mL
[10]
  EC50: 0.025 µg/mL
[11]
  EC50: 0.022 µg/mL
[12]
  EC50: 0.024 µg/mL
[13]
  EC50: 0.031 µg/mL
[14]
  EC50: 0.027 µg/mL
[15]
  EC50: 0.021 µg/mL
[16]
  EC50: 0.022 µg/mL

## PGT145 (antibody)
[2]
  EC50: 0.013 µg/mL
[3]
  EC50: 0.014 µg/mL
[4]
  EC50: 0.013 µg/mL
[5]
  EC50: 0.015 µg/mL
[6]
  EC50: 0.019 µg/mL
[7]
  EC50: 0.014 µg/mL
[8]
  EC50: 0.015 µg/mL
[9]
  EC50: 0.016 µg/mL
[10]
  EC50: 0.011 µg/mL
[11]
  EC50: 0.018 µg/mL
[12]
  EC50: 0.013 µg/mL
[13]
  EC50: 0.016 µg/mL
[14]
  EC50: 0.014 µg/mL
[15]
  EC50: 0.015 µg/mL
[16]
  EC50: 0.012 µg/mL
[17]
  Kd: 1.9 nM
[18]
  Kd: 16 nM
  koff: 0.004 s⁻¹
  kon: 240000 M⁻¹ s⁻¹
[19]
  Kd: 3.3 nM
  koff: 0.001 s⁻¹
  kon: 310000 M⁻¹ s⁻¹
[20]
  Kd: 2.9 nM
  koff: 0.0009 s⁻¹
  kon: 300000 M⁻¹ s⁻¹
[21]
  Kd: 1.6 nM
  koff: 0.0005 s⁻¹
  kon: 320000 M⁻¹ s⁻¹
[22]
  Kd: 25 nM
  koff: 0.0056 s⁻¹
  kon: 220000 M⁻¹ s⁻¹
[23]
  Kd: 16 nM
  koff: 0.0035 s⁻¹
  kon: 220000 M⁻¹ s⁻¹
[24]
  Kd: 6.2 nM
[25]
  Kd: 21 nM
  koff: 0.0034 s⁻¹
  kon: 160000 M⁻¹ s⁻¹
[26]
  Kd: 2.9 nM
[27]
  Kd: 4.3 nM
[28]
  Kd: 6.2 nM
[29]
  Kd: 3.6 nM
[30]
  Kd: 5 nM
[31]
  Kd: 16 nM
  koff: 0.0027 s⁻¹
  kon: 170000 M⁻¹ s⁻¹
[32]
  Kd: 19 nM
  koff: 0.0031 s⁻¹
  kon: 170000 M⁻¹ s⁻¹

## VRC01 (antibody)
[1]
  EC50: 0.055 µg/mL
[2]
  EC50: 0.021 µg/mL
[3]
  EC50: 0.178 µg/mL
[4]
  EC50: 0.294 µg/mL
[5]
  EC50: 0.059 µg/mL
[6]
  EC50: 0.208 µg/mL
[7]
  EC50: 0.067 µg/mL
[8]
  EC50: 0.178 µg/mL
[9]
  EC50: 0.05 µg/mL
[10]
  EC50: 0.059 µg/mL
[11]
  EC50: 0.07 µg/mL
[12]
  EC50: 0.042 µg/mL
[13]
  EC50: 0.066 µg/mL
[14]
  EC50: 0.051 µg/mL
[15]
  EC50: 0.069 µg/mL
[16]
  EC50: 0.032 µg/mL

## VRC03 Fab
[33]
  fold difference in affinity vs +N332 PT: 10 fold
[34]
  fold difference in affinity vs +N332 PT: 8 fold
[35]
  fold lower binding vs +N332 PT: 2 fold
[36]
  fold more efficient recognition vs PT: 30 fold
[37]
  share of trimers unliganded: 22%
  share of trimers with 1 Fab: 23%
  share of trimers with 2 Fabs: 30%
  share of trimers with 3 Fabs: 25%
[38]
  share of trimers unliganded: 19%
  share of trimers with 1 Fab: 20%
  share of trimers with 2 Fabs: 34%
  share of trimers with 3 Fabs: 27%
[39]
  Kd: 12.9 nM
  koff: 0.000739 s⁻¹
  kon: 57100 M⁻¹ s⁻¹
[40]
  Kd: 16.4 nM
  koff: 0.00124 s⁻¹
  kon: 75400 M⁻¹ s⁻¹
[41]
  Kd: 270 nM
  koff: 0.0037 s⁻¹
  kon: 13700 M⁻¹ s⁻¹
[42]
  Kd: 131 nM
  koff: 0.00204 s⁻¹
  kon: 15600 M⁻¹ s⁻¹
[43]
  Kd: 241 nM
  koff: 0.0026 s⁻¹
  kon: 10800 M⁻¹ s⁻¹
[44]
  Kd: 8.6 nM
  koff: 0.000505 s⁻¹
  kon: 58700 M⁻¹ s⁻¹

## VRC34 (antibody)
[1]
  EC50: 0.692 µg/mL
[2]
  EC50: 0.434 µg/mL
[6]
  EC50: 0.034 µg/mL
[8]
  EC50: 0.032 µg/mL
[9]
  EC50: 0.464 µg/mL
[10]
  EC50: 0.457 µg/mL
[11]
  EC50: 0.017 µg/mL
[12]
  EC50: 0.072 µg/mL
[13]
  EC50: 0.037 µg/mL
[14]
  EC50: 2.43 µg/mL
[15]
  EC50: 0.035 µg/mL
[16]
  EC50: 1.01 µg/mL
[18]
  Kd: 63 nM
  koff: 0.0027 s⁻¹
  kon: 43000 M⁻¹ s⁻¹
[22]
  Kd: 92 nM
  koff: 0.0038 s⁻¹
  kon: 41000 M⁻¹ s⁻¹
[23]
  Kd: 75 nM
  koff: 0.0038 s⁻¹
  kon: 50000 M⁻¹ s⁻¹
[25]
  Kd: 1.3 nM
  koff: 4e-05 s⁻¹
  kon: 27000 M⁻¹ s⁻¹
[31]
  Kd: 12 nM
  koff: 0.0005 s⁻¹
  kon: 43000 M⁻¹ s⁻¹
[32]
  Kd: 44 nM
  koff: 0.002 s⁻¹
  kon: 44000 M⁻¹ s⁻¹
